Earlier results, collected in patent US20230002502A1, “METHODS AND PRODUCTS FOR REDUCING SIDE EFFECTS ASSOCIATED WITH USE OF IMMUNE AGONIST ANTIBODIES” (South Australian Health and Medical Research Institute …, priority 2019, published 2023).
Entries after “also recorded” stand apart in the source; their conditions may differ. Where two headings read alike, the source gives them in different places.

Tested on: patients
Conditions: for toxicity reported in clinical trials: patients

For urelumab: an anti-CD137 IAA, IgG4, the “clinical trial results at lower dose” value (8 mg/patient, alone or in combination with anti-PD1) is given as “overall disappointing results”, the “toxicity reported in clinical trials” value is given as “severe dose-dependent liver toxicity; also recorded: high rates of dose dependent liver toxicity, resulting in several deaths” and the “toxicity reported in clinical trials” value (listed as Urelumab) is given as “severe (grade 3 and above) liver damage”.
